Biological target: mCherry-LacR-CSB-ATPase
Assay: immunofluorescence co-localisation at the lac operator array (mCherry-LacR tethering) in U2OS-265 cells
Conditions: 250 Myc-expressing cells scored per experiment; three independent experiments; parent: est. 28; read off a plot

| response | Substance |
| --- | --- |
| 28 % of cells | Myc-CSB-N S158D |
| 17 % of cells | Myc-CSB-N S10A; S158A |
| 21 % of cells | Myc-CSB-N S10A |
| 32 % of cells | Myc-CSB-N S10D |
| 30 % of cells | Myc-CSB-N S10D; S158D |
| 18 % of cells | Myc-CSB-N S158A |

Source: paper PMC5715124
